Data reported in publication PMC4837377 (Scientific Reports, 2016).

Target: PA (residues 1-716) of influenza A virus RNA-dependent RNA-polymerase (influenza A virus …, UniProt P31343 1-716)
Experiment: SEC-SAXS
Settings: both partners purified

B1: PB1(1-686) of influenza A virus RNA-dependent RNA-polymerase (domain or fragment)
chain: MDVNPTLLFLKVPAQNAISTTFPYTGDPPYSHGTGTGYTMDTVNRTHQYSEKGKWTTNTETGAAQLNPIDGPLPEDNEPSGYAQTDCVLEAMAFLEESHPGIFENSCLETMEVVQQTRVDRLTQGRQTYDWTLNRNQPAATALANTIEVFRSNGLIANESGRLIDFLKDVIESMDKEEMEITTHFQRKRRVRDNMTKKMVTQRTIGKKKQRVNKRSYLIRALTLNTMTKDAERGKLKRRAIATPGMQIRGFVYFVETLARSICEKLEQSGLPVGGNEKKAKLANVVRKMMTNSQDTELSFTITGDNTKWNENQNPRMFLAMITYITKNQPEWFRNILSIAPIMFSNKMARLGKGYMFESKRMKLRTQIPAEMLASIDLKYFNESTRKKIEKIRPLLIDGTASLSPGMMMGMFNMLSTVLGVSILNLGQKKYTKTTYWWDGLQSSDDFALIVNAPNHEGIQAGVDRFYRTCKLVGINMSKKKSYINRTGTFEFTSFFYRYGFVANFSMELPSFGVSGINESADMSIGVTVIKNNMINNDLGPATAQMALQLFIKDYRYTYRCHRGDTQIQTRRSFELKKLWEQTRSKAGLLVSDGGPNLYNIRNLHIPEVCLKWELMDEDYQGRLCNPLNPFVSHKEIESVNNAVVMPAHGPAKSMEYDAVATTHSWIPKRNRSILNTSQRGILEDE
For B1, the “stoichiometry N” value was 1.
